Assay results from patent publication US20250066490A1 (PROFOUNDBIO US, published 2025).

What was measured:
[1] = target: T1, human CD70 expressed on the cell surface of tumor cell lines (human, UniProt P32970 1-193); assay: flow cytometry on Caki-1 cells
T1 construct: whole, on cells
T1 sequence (looked up): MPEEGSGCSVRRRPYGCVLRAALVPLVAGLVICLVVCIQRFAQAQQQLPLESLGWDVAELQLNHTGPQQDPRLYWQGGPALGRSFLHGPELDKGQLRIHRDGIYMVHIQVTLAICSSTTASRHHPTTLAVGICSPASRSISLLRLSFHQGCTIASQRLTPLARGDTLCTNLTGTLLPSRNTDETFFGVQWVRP
Method: (§1) The lead antibodies were tested for binding to renal carcinoma cells and glioblastoma cells expressing CD70 on the cell surface by flow cytometry. […] U251 cells were cultured with MEM medium containing of 10% FBS and 1% NEAA+1 mM sodium pyruvate. DBTRG-05MG cells were cultured with DMEM medium (Gibco, Cat #C11995500BT) containing of 10% FBS. Each of the lead antibodies and the controls were incubated for 30 mins with the different cell lines (3×10⁵ cells per well) in 0.2 ml FACS buffer (1×PBS with 0.1% BSA) at 4° C. Then, the cells were pelleted, washed, and incubated at 4° C. for 30 mins with 100 μl of 1:200 diluted PE-conjugated anti human Fc (Abcam, Ab98596) in FACS buffer. The cells were pelleted again, washed with PBS, resuspended in FACS buffer and analyzed by flow cytometer (Beckman, CytoFLEX).
(§2) Antibodies 2H8 and 2D2 had slightly higher binding ability to the cell lines than that of antibody 69A7.

[2] = target: T2, human CD70 extra-cellular domain (ECD) linked to His tag (human, UniProt P32970 39-193); assay: BLI, global 1:1 fit over 200-3.13 nM; cell repeated in each concentration row
T2 construct: extracellular domain; also called Hu CD70; HU CD70; not shown: His tag
T2 sequence (looked up): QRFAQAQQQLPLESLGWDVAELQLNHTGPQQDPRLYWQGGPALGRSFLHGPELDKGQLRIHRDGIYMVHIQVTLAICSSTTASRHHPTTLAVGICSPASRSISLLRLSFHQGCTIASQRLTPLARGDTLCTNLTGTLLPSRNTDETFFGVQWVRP

[3] = target: T1, human CD70 expressed on the cell …; assay: flow cytometry on U251 cells
Method: as §1, §2

[4] = target: T1, human CD70 expressed on the cell …; assay: flow cytometry on Raji cells, PE anti-human Fc, MFI(PE); the text gives this EC50 only as about 19 nM
Method: Binding activity of 2E7 or the isotype control with a target cell line (Raji) or a cell line (MCF-7) that has negligible level of CD70 expression were evaluated by flow cytometry (Beckman, Cytoflex). 3×10⁵ cells per well were seeded on a 96-well V-bottomed plate and incubated with 100 μl of 2E7 in serial dilutions. After 30 min incubation at 4° C., cells were washed twice with PBS, stained with 100 μl of 1:200 diluted PE-conjugated anti-human Fc in FACS buffer (1×PBS containing 1% BSA), then incubated at 4° C. for 30 min. Cells were finally washed two times with PBS and analyzed by flow cytometric analysis.

[5] = target: T3, cynomolgus CD70 recombinant protein (cynomolgus, UniProt A0A2K5WTU9 39-190); assay: ELISA, IgG titrated on coated cynomolgus CD70 recombinant protein (2 µg/ml), anti-human Fc-HRP, OD450
T3 construct: also called cyno-antigen; cynomolgus CD70 protein
T3 sequence: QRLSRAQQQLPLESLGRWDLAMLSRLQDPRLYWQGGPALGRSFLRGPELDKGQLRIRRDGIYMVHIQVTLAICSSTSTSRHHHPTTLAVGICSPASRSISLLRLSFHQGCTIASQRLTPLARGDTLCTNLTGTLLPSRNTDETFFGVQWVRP
Method: The binding specificity of the CD70 antibodies was tested by ELISA according to a standard protocol. Briefly, 96-well micro-plates were coated with 2 μg/ml of human or cynomolgus CD70 recombinant protein in PBS at 100 μl per well and incubated overnight at 4° C. The plates were washed twice with TBS+0.5% Tween20. 200 μL of blocking buffer (2% BSA in PBS) was added to each well, and the plates were incubated at 37° C. for 2 hours. The plates were washed using the wash buffer mentioned above. Serially diluted antibodies were added to the ELISA plates using 100 μl per well, and the plates were incubated for 1 hour at room temperature. Then plates were washed 3 times. HRP conjugated anti-human Fc antibody solution (Sigma, I18885-2ML, diluted with blocking buffer) was added to the plates using 100 μl per well. The plates were incubated at room temperature for 1 hour and then washed 3 times. Then the TMB solution was added to plates using 100 μl per well and the plates were placed at RT for 5-15 mins. Then the stop solution (2M H2SO4) was added using 50 μl per well. The absorbance was measured at A450 and A630.

[6] = target: T4, CD70 ECD (antigen immobilized on the CM5 chip) (UniProt P32970 39-193); assay: SPR (Biacore T200), CD70 ECD on CM5 chip, IgG as analyte
T4 construct: extracellular domain; also called CD70 antigen
T4 sequence (looked up): T2 sequence (looked up)
Method: The immobilization of antigen CD70 ECD was performed at 25° C. with HBS-EP as the running buffer. Sensor chip surface of flow cells 1, 4 were activated by freshly mixed 50 mmol/L N-Hydroxy succinimide (NHS) and 200 mmol/L 1-ethyl-3-(3-dimethylaminopropyl) carbodiimide hydrochloride (EDC) for 420s (10 μL/min). Afterwards, CD70 antigen diluted in 10 mmol/L NaAC (pH 4.5) was injected into flow cell 4 to achieve conjugation of the appropriate Response Unit, while flow cell 1 was set as a blank. After the amine coupling reaction, the remaining active coupling sites on chip surface were blocked by 420s injection of 1 mol/L ethanolamine hydrochloride.
The assay was performed at 25° C. and the running buffer was HBS-EP. Diluted antibodies were injected over the surface of flow cells 1 and 4 during the association phase, followed by injecting running buffer as the dissociation phase. All the data were processed using Biacore T200 Evaluation software version 3.1. Flow cell 1 and a blank injection of buffer in each cycle were used as a double reference for Response Units subtraction. Kinetic data of the interaction between the antibodies and CD70 antigen were obtained through affinity measurement.

B1: 2E7, full IgG (antibody, V domains shown)
VH: QVQLQESGPGLVKPSETLSLTCTVSGGSVSSDYYYWSWIRQPPGKGLEWLGYIYYSGSTNYNPSLKSRVTISVDTSKNQFSLKLRSVTTADTAVYYCARGDGDFLGVCFDYWGQGTLVTVSS
VL: EIVLTQSPATLSLSPGERATLSCRASQSVSSYLAWYQQKPGQAPRLLIFDASNRATGIPARFSGSGSGTDFTLTISSLEPEDFAVYYCQQRSNWPLTFGGGTKVEIK
EC50 [1]: 2.81 nM
Kd [2]: 0.807 nM
koff [2]: 0.000254 s⁻¹
kon [2]: 314000 M⁻¹ s⁻¹
EC50 [3]: 4.03 nM
EC50 [4]: 2.98 µg/mL
EC50 [5]: 0.00401 µg/mL
Kd [6]: 14 nM
koff [6]: 0.00106 s⁻¹
kon [6]: 75400 M⁻¹ s⁻¹
